Eight molecules from article PMC9418327, “Specificity of the Hox member Deformed is determined by transcription factor levels and binding site affinities” can be followed below.

As a reminder, the Kd is the free concentration of one partner at which half of the binding sites on the other are occupied at equilibrium, for simple one-to-one binding.

The target of data set [1] is T1, Dfd (Deformed);Exd (Extradenticle) (Drosophila melanogaster?;Drosophila …, UniProt P07548;P40427 1-586;1-376, |). The data set is described as follows: EMSA; Hth presence not given; 20 mM HEPES pH 7.9, 1.4 mM MgCl2, 1 mM ZnSO4, 40 mM KCl, 0.1 mM EGTA, 5% glycerol, 10 mM DTT, 0.1% NP40, 200 ng poly(dI-dC), 3 ug BSA, 2 pmol Cy5 dsDNA in 30 ul, on ice 20 min; 1% agarose-TBE gel at 4 C. Particulars: protein: recombinant;recombinant; tags: GST (pGEX-6P);His-myc; copies: 1;1; label: 5'-Cy5; blunt. (In EMSA bound probe runs differently from free probe, usually more slowly.)
T1 sequence (P07548 whole entry, chain 1 of 2): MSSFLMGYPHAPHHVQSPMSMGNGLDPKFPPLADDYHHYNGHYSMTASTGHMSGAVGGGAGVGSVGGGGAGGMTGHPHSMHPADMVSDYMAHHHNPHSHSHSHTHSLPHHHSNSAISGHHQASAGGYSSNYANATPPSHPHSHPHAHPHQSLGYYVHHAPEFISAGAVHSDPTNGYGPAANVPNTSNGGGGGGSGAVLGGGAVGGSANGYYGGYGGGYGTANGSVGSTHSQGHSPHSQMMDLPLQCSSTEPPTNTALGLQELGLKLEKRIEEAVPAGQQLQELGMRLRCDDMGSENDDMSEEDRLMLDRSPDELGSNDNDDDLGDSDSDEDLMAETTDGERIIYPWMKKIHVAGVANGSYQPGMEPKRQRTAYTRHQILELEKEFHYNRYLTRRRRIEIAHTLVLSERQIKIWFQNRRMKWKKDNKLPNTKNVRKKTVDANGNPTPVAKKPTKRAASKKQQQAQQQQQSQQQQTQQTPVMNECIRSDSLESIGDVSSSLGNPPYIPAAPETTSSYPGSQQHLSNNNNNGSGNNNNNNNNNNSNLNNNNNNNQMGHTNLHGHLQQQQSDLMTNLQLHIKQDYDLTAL
T1 sequence (P40427 whole entry, chain 2 of 2): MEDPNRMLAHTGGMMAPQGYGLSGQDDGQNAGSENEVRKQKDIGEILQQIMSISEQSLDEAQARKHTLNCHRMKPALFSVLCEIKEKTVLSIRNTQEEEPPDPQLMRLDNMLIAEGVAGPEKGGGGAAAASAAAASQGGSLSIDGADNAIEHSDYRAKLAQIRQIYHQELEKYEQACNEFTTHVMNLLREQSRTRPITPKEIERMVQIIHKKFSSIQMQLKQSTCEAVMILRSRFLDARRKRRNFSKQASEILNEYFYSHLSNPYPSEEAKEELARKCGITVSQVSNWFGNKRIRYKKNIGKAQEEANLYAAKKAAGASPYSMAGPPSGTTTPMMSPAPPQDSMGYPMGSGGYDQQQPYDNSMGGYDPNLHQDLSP

Data set [2] has as its target T2, Dfd (Deformed);Exd (Extradenticle);Hth (Homothorax) (Drosophila melanogaster?;Drosophila …, UniProt P07548;P40427;O46339 1-586;1-376;1-487, ||). Put plainly: EMSA; binding abolished when all sites mutated; 20 mM HEPES pH 7.9, 1.4 mM MgCl2, 1 mM ZnSO4, 40 mM KCl, 0.1 mM EGTA, 5% glycerol, 10 mM DTT, 0.1% NP40, 200 ng poly(dI-dC), 3 ug BSA, 2 pmol Cy5 dsDNA in 30 ul, on ice 20 min; 1% agarose-TBE gel at 4 C. Particulars: protein: recombinant;recombinant;recombinant; tags: GST (pGEX-6P);His-myc;His-Flag; copies: 1;1;1; label: 5'-Cy5; blunt.

Data set [3] addresses T1, Dfd (Deformed);Exd (Extradenticle). Put plainly: EMSA; Hth presence not stated; review file prints 6.85 and 6.65; 20 mM HEPES pH 7.9, 1.4 mM MgCl2, 1 mM ZnSO4, 40 mM KCl, 0.1 mM EGTA, 5% glycerol, 10 mM DTT, 0.1% NP40, 200 ng poly(dI-dC), 3 ug BSA, 2 pmol Cy5 dsDNA in 30 ul, on ice 20 min; 1% agarose-TBE gel at 4 C. Particulars: protein: recombinant;recombinant; tags: GST (pGEX-6P);His-myc; copies: 1;1; label: 5'-Cy5; blunt.

In data set [4] the target is T2, Dfd (Deformed);Exd (Extradenticle);Hth …. Put plainly: EMSA; 20 mM HEPES pH 7.9, 1.4 mM MgCl2, 1 mM ZnSO4, 40 mM KCl, 0.1 mM EGTA, 5% glycerol, 10 mM DTT, 0.1% NP40, 200 ng poly(dI-dC), 3 ug BSA, 2 pmol Cy5 dsDNA in 30 ul, on ice 20 min; 1% agarose-TBE gel at 4 C. Particulars: protein: recombinant;recombinant;recombinant; tags: GST (pGEX-6P);His-myc;His-Flag; copies: 1;1;1; label: 5'-Cy5; blunt.

T2 sequence (P07548 whole entry, chain 1 of 3): as the sequence (P07548 whole entry, chain 1 of 2) above
T2 sequence (P40427 whole entry, chain 2 of 3): as the sequence (P40427 whole entry, chain 2 of 2) above
T2 sequence (O46339 whole entry, chain 3 of 3): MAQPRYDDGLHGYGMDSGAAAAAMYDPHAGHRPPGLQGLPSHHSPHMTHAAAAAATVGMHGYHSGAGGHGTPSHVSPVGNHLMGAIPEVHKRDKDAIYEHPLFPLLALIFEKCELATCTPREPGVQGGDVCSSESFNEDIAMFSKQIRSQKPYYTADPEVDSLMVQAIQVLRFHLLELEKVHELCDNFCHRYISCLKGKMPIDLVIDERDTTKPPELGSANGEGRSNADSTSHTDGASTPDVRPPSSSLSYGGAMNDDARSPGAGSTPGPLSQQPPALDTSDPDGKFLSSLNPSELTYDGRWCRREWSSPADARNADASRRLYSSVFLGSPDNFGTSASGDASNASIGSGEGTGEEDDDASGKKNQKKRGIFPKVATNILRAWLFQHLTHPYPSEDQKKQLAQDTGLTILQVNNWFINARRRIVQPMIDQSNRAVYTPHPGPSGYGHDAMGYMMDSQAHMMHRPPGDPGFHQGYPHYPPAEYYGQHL

B1: oligo-class-2-site (dsDNA)
DNA 1: TTCAGAGCGAATGATTAATGATCGGTCAAG
DNA 2: CTTGACCGATCATTAATCATTCGCTCTGAA
Regarding B1, the Kd in data set [1] is 9.12 nM.

B2: oligo-B-12-mt (dsDNA)
DNA 1: GACCGCAGAACCAAGCCGCCTATTGCCAGTGAAT
DNA 2: ATTCACTGGCAATAGGCGGCTTGGTTCTGCGGTC
B2: the binding result in data set [2] was “no binding”.

B3: oligo-D-1-mt-2-H (D-9mut-10H) (dsDNA)
DNA 1: TATAAAAGGCGGCATTGATTAATTAATTCTCGAT
DNA 2: ATCGAGAATTAATTAATCAATGCCGCCTTTTATA
B3: the Kd in data set [1] was 8.16 nM.

B4: oligo-E-11-H (dsDNA)
DNA 1: CTTCTTCGGATGATTAATGACGCGCGTTCAACAT
DNA 2: ATGTTGAACGCGCGTCATTAATCATCCGAAGAAG
With B4, the Kd in data set [3] worked out at 6.7 nM.

B5: oligo-D-1-mt (D-9mut-10wt) (dsDNA)
DNA 1: TATAAAAGGCGGCAAATACTAATCTATTCTCGAT
DNA 2: ATCGAGAATAGATTAGTATTTGCCGCCTTTTATA
On to B5, for which the Kd in data set [1] was 16.9 nM.

B6: oligo-D-wt (sites 9, 10) (dsDNA)
DNA 1: TATAAAAGCCATTAAATACTAATCTATTCTCGAT
DNA 2: ATCGAGAATAGATTAGTATTTAATGGCTTTTATA
On to B6, for which the binding result in data set [4] was “binds”.

B7: oligo-E-wt (site 11) (dsDNA)
DNA 1: CTTCTTCGGGCACCTAATGACGCGCGTTCAACAT
DNA 2: ATGTTGAACGCGCGTCATTAGGTGCCCGAAGAAG
With B7, the binding result in data set [4] is “binds”. In addition, the Kd in data set [1] was 16.8 nM.

B8: oligo-A-wt (site 1) (dsDNA)
DNA 1: TCTCAGCCTCGATAATTAACACACAAGCGCGGGG
DNA 2: CCCCGCGCTTGTGTGTTAATTATCGAGGCTGAGA
Take B8: the binding result in data set [4] is “binds”.
